Consider 6 molecules from US20090118178A1 (7TM PHARMA A S, published 2009).

Where no end group is shown, it is not given here. Where only a bound is given, the exact number is not on record here.

Holding throughout (experiment): cell-based or functional assay
The target of one test is T1, human Y2 receptor (human, UniProt P49146 1-381).
T1 sequence (looked up): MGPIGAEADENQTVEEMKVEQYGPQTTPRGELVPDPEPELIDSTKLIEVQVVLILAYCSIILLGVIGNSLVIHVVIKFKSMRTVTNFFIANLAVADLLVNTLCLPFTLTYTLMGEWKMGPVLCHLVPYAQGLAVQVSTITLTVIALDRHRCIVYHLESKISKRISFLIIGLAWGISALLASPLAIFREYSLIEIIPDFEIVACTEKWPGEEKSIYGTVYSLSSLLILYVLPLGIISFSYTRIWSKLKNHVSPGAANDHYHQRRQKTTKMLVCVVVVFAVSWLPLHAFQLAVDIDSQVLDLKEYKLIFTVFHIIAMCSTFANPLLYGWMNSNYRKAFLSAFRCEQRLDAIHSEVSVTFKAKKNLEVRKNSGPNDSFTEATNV

Another test addresses human Y4 receptor (human, UniProt P50391 1-375).
The next test deals with T2, human Y1 receptor (human, UniProt P25929 1-384).
T2 sequence (looked up): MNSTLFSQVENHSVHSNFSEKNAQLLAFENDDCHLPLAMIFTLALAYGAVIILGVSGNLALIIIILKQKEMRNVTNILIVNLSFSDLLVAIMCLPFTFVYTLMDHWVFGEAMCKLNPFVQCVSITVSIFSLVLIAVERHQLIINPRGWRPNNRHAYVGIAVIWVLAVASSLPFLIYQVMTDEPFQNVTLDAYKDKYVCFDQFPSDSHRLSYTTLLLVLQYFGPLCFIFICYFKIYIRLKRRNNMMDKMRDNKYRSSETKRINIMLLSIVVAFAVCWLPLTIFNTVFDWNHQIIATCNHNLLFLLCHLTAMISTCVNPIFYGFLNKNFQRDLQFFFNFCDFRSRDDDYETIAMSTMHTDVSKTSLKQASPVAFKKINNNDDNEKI

Chain of human Y4 receptor (P50391 whole entry): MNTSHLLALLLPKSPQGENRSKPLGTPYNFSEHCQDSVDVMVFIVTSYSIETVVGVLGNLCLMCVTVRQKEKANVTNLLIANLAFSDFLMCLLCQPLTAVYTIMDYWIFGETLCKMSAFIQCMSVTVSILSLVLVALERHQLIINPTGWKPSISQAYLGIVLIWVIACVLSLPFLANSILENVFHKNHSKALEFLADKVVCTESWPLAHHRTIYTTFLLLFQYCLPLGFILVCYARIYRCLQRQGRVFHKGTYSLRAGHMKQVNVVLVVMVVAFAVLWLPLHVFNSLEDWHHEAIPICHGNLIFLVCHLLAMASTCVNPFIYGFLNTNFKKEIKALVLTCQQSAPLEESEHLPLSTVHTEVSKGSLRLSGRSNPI

As for PLEPVYPGDNATPEQMAQYAADLRRYINTLTRPRY-NH2 [[Thr30]PP2-36], the “EC50, inositol phosphate turnover in transfected COS-7 cells (hY2 potency assay)” value (“EC50 … (hY2 potency assay)” for short) with human Y2 receptor is above 1000 nM. Besides, in the test with human Y4 receptor, the “EC50, inositol phosphate turnover in transfected COS-7 cells (hY4 potency assay)” value (from here on “EC50 … (hY4 potency assay)”) was found to be 1.07 nM. In the test with human Y1 receptor, the “EC50, inositol phosphate turnover in transfected COS-7 cells (hY1 potency assay)” value (from here on “EC50 … (hY1 potency assay)”) is above 1000 nM.

Take PLEPVYPGENATPEQMAQYAADLRRYINMLTRPRY-NH2 [[Glu10]PP2-36]: the “EC50 … (hY2 potency assay)” value with human Y2 receptor was above 1000 nM. In the test with human Y4 receptor, the “EC50 … (hY4 potency assay)” value was found to be 0.91 nM. In the test with human Y1 receptor, the “EC50 … (hY1 potency assay)” value was determined as 564 nM.

Turning to PLEPVYPGDNATPEQMAQYAADLRRYINALTRPRY-NH2 [[Ala30]PP2-36], in the test with human Y2 receptor, the “EC50 … (hY2 potency assay)” value is above 1000 nM. In addition, the “EC50 … (hY4 potency assay)” value in the test with human Y4 receptor worked out at 1.04 nM. Moreover, in the test with human Y1 receptor, the “EC50 … (hY1 potency assay)” value is above 1000 nM.

Consider PLEPVYPGENATPEQLAQYAADLRRYINTLTRPRY-NH2 [[Glu10, Leu17, Thr30]PP2-36], for which the “EC50 … (hY2 potency assay)” value with human Y2 receptor was above 1000 nM. The “EC50 … (hY4 potency assay)” value with human Y4 receptor is 1.07 nM. In addition, the “EC50 … (hY1 potency assay)” value with human Y1 receptor is above 1000 nM.

Consider PLEPVYPGDNATPEQMAQYAADLRRYINNLTRPRY-NH2 [[Asn30]PP2-36], for which the “EC50 … (hY2 potency assay)” value in the test with human Y2 receptor was above 1000 nM. Besides, the “EC50 … (hY4 potency assay)” value in the test with human Y4 receptor came out at 3.05 nM. Besides, in the test with human Y1 receptor, the “EC50 … (hY1 potency assay)” value is above 1000 nM.

As to PLEPVYPGDNATPEQMAQYAADLRRYINQLTRPRY-NH2 [[Gln30]PP2-36], the “EC50 … (hY2 potency assay)” value with human Y2 receptor was above 1000 nM. Further, the “EC50 … (hY4 potency assay)” value with human Y4 receptor is 0.99 nM. The “EC50 … (hY1 potency assay)” value with human Y1 receptor is above 1000 nM.
